Measurements taken from paper PMC2213500 (The Journal of Experimental Medicine, 2000).

Assays:
[1] = target: Cys-HA_(Anchorless) peptide, unlabelled (influenza virus); assay: SPR
[2] = target: fluorescein-labelled HA_(Anchorless) peptide (influenza virus); assay: dissociation kinetics of fluorescent peptide-MHC complexes
[3] = target: influenza virus hemagglutinin peptide HA_(305–318), unlabelled (influenza virus); assay: SPR

Substance | dissociation rate in the presence of DM [1] [s⁻¹] | rate of binding to the peptide surface in the absence of DM [1] [s⁻¹] | t1/2 in the presence of DM [1] [h] | t1/2 of dissociation [1] [h] | t1/2 of dissociation [2] [h] | dissociation rate in the presence of DM [3] [s⁻¹] | t1/2 in the presence of DM [3] [h]
soluble mutant HLA-DR1 with β86 glycine changed to tyrosine (from UniProt P01903) (complex) | 8.5e-05 | 0.119 | 2.25 | 3.4 | 1.8 |  | 
soluble wild-type HLA-DR1 (empty, no added peptide) (from UniProt P01903) (complex) | 0.0038 | 0.035 | 0.05 |  | 1.8 | 5.6e-07 | 344
